One may read the Kd as the constant that tells how readily two partners part at equilibrium.

Kd data for one molecule are collected here from article PMC10184575, “Development of an Anti-canine PD-L1 Antibody and Caninized PD-L1 Mouse Model as Translational Research Tools for the Study of Immunotherapy in Humans” (Cancer Research Communications, 2023).

This experiment has as its target T1, 6X His-tagged extracellular domain of canine PD-L1 (canine, UniProt E2RKZ5).
T1 construct: canine PD-L1 (CD274), extracellular domain; also called cPD-L1-His; His-tagged cPD-L1 protein; source: ExpiCHO cell system, purified (Ni-NTA agarose)
The experiment in a line: BLI; Octet RED384; His-tagged cPD-L1 loaded on NTA biosensor at 200 nmol/L; 12C10E4 antibody at 50, 100, 200 nmol/L in kinetic buffer. Conditions: both partners purified. (In general: In BLI a coated tip is dipped into the sample, and binding shifts an interference pattern.)

T1 sequence (E2RKZ5 entry or part of it): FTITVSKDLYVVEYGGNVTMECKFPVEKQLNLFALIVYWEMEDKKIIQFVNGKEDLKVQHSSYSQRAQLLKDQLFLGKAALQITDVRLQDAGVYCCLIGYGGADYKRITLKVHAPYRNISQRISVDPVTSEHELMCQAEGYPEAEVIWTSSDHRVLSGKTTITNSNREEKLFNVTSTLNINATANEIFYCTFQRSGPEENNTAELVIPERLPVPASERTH

B1: 12C10E4 chimeric antibody (12C10E4-cIgG; murine variable regions, canine IgG2 and canine kappa constant regions) (antibody, V domains shown)
VH: QVQLKQSGPGLVQPSQSLSITCTISGFSLTSFGVHWVRQSPGKGLEWLGVIWSGGSTDYNAAFTSRLSINKDNSKSQVFFKMNSLQADDTAIYYCARGGGPDWYFDVWGTGTTVTVSS
VL: DIVLTQSPASLAVSLGQRATISCRASESVEYYGTSLMQWYQQKPGQPPKLLIFAASNVKSGVPARFSGSGSGTDFSLNIHPVEEDDIAMYFCQQSGKVPHTFGGGTKLEIK
notes: VH of the mouse hybridoma 12C10E4; canine IgG2 heavy constant chain (called equivalent to human IgG1); VL of the mouse hybridoma 12C10E4; canine kappa light constant chain; also called 12C chimeric antibody; 12C cPD-L1 chimera antibody; source: ExpiCHO-S, transfected, purified (protein A agarose)
B1 returned a Kd of 8.6 nM.
